Measurements reported in publication PMC5856089.

How the values were obtained:
[1] = biological target: T1, C-luc Apaf-1 (full length Apaf-1 fused through its N-terminus to the C-terminal fragment, amino acids 395-550, of P. pyralis luciferase, with C-terminal His-tag), O14727; assay: split reporter (BiFC, NanoBiT); cell-free split luciferase: extracts of N-luc Apaf-1 and C-luc Apaf-1 expressing cells mixed, cytochrome c (1.6 μM) and dATP (1.0 mM) added, room temperature; against the mixture without cytochrome c and dATP; settings: remark: other sources report otherwise
T1 chain: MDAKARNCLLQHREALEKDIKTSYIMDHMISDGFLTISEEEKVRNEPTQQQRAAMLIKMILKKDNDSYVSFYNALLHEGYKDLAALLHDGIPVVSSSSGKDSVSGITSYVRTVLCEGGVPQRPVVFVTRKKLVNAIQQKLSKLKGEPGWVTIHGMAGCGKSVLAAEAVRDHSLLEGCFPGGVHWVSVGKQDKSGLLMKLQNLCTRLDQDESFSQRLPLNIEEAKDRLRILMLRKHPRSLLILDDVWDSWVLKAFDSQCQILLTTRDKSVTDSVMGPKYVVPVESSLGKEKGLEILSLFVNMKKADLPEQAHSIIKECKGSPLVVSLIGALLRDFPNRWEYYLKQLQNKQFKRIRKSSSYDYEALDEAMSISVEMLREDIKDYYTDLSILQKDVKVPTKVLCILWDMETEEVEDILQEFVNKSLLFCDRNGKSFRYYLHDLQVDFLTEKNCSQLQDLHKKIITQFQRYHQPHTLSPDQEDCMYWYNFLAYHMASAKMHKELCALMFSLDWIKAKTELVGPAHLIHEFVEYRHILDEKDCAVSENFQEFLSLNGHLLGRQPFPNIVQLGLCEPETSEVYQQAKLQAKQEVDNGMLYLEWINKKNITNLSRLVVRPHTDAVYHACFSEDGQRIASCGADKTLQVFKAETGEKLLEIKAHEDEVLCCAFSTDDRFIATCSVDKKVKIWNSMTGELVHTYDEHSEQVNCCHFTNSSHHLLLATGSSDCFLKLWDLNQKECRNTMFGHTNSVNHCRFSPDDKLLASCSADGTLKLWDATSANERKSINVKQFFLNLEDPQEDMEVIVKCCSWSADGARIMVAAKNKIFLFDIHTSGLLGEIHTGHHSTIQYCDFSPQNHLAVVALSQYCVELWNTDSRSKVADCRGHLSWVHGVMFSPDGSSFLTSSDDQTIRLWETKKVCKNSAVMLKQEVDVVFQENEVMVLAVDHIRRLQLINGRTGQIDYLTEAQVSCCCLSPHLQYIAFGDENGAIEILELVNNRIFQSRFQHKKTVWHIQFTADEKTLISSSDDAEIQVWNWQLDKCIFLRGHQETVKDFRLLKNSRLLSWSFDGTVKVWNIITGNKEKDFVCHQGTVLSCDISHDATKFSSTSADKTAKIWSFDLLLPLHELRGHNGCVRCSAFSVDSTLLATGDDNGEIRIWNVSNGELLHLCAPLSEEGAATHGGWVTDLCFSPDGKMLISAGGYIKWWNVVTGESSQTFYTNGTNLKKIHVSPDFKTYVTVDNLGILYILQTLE

[2] = biological target: T1, C-luc Apaf-1 (full length Apaf-1 fused …); assay: split reporter (BiFC, NanoBiT); cell-based split luciferase: HEK293 co-transfected with N-luc Apaf-1 and C-luc Apaf-1 (N/P 12), apoptosis induced with 0.5 μM doxorubicin, lysates (CCLR) prepared 12, 24, 28 and 36 h after induction; luciferase activity against uninduced cells; settings: remark: other sources report otherwise

fold increase in reconstituted luciferase activity with dATP/cytochrome c against the mixture without them [1]: 5 fold
fold change in luciferase activity against uninduced cells, 12 h after apoptosis induction [2]: 10 fold
fold change in luciferase activity against uninduced cells, 24 h after apoptosis induction [2]: 130 fold
fold change in luciferase activity against uninduced cells, 28 h after apoptosis induction [2]: 280 fold
fold change in luciferase activity against uninduced cells, 36 h after apoptosis induction [2]: 40 fold
B1: N-luc Apaf-1 (full length Apaf-1 fused through its N-terminus to the N-terminal fragment, amino acids 1-416, of P. pyralis luciferase), O14727 1-1248 (natural protein)
chain: MDAKARNCLLQHREALEKDIKTSYIMDHMISDGFLTISEEEKVRNEPTQQQRAAMLIKMILKKDNDSYVSFYNALLHEGYKDLAALLHDGIPVVSSSSGKDSVSGITSYVRTVLCEGGVPQRPVVFVTRKKLVNAIQQKLSKLKGEPGWVTIHGMAGCGKSVLAAEAVRDHSLLEGCFPGGVHWVSVGKQDKSGLLMKLQNLCTRLDQDESFSQRLPLNIEEAKDRLRILMLRKHPRSLLILDDVWDSWVLKAFDSQCQILLTTRDKSVTDSVMGPKYVVPVESSLGKEKGLEILSLFVNMKKADLPEQAHSIIKECKGSPLVVSLIGALLRDFPNRWEYYLKQLQNKQFKRIRKSSSYDYEALDEAMSISVEMLREDIKDYYTDLSILQKDVKVPTKVLCILWDMETEEVEDILQEFVNKSLLFCDRNGKSFRYYLHDLQVDFLTEKNCSQLQDLHKKIITQFQRYHQPHTLSPDQEDCMYWYNFLAYHMASAKMHKELCALMFSLDWIKAKTELVGPAHLIHEFVEYRHILDEKDCAVSENFQEFLSLNGHLLGRQPFPNIVQLGLCEPETSEVYQQAKLQAKQEVDNGMLYLEWINKKNITNLSRLVVRPHTDAVYHACFSEDGQRIASCGADKTLQVFKAETGEKLLEIKAHEDEVLCCAFSTDDRFIATCSVDKKVKIWNSMTGELVHTYDEHSEQVNCCHFTNSSHHLLLATGSSDCFLKLWDLNQKECRNTMFGHTNSVNHCRFSPDDKLLASCSADGTLKLWDATSANERKSINVKQFFLNLEDPQEDMEVIVKCCSWSADGARIMVAAKNKIFLFDIHTSGLLGEIHTGHHSTIQYCDFSPQNHLAVVALSQYCVELWNTDSRSKVADCRGHLSWVHGVMFSPDGSSFLTSSDDQTIRLWETKKVCKNSAVMLKQEVDVVFQENEVMVLAVDHIRRLQLINGRTGQIDYLTEAQVSCCCLSPHLQYIAFGDENGAIEILELVNNRIFQSRFQHKKTVWHIQFTADEKTLISSSDDAEIQVWNWQLDKCIFLRGHQETVKDFRLLKNSRLLSWSFDGTVKVWNIITGNKEKDFVCHQGTVLSCDISHDATKFSSTSADKTAKIWSFDLLLPLHELRGHNGCVRCSAFSVDSTLLATGDDNGEIRIWNVSNGELLHLCAPLSEEGAATHGGWVTDLCFSPDGKMLISAGGYIKWWNVVTGESSQTFYTNGTNLKKIHVSPDFKTYVTVDNLGILYILQTLE
